Results as given in article PMC7077846 (PLoS Biology, 2020).

Experiments:
[1] = target: human 20S proteasome core particle (human) (UniProt P60900)
[2] = target: T1, human proteasome activator 200 (PA200) (human, UniProt Q14997 1-1843); experiment: cryo-EM structure; 3 μl 20S-CP (approximately 1.4 mg/ml) incubated with 6 μl PA200 (approximately 0.44 mg/ml) in ice for 1 h; single-capped PA200-20S particles selected; 2.72 Å; settings: both partners purified
T1 construct: Carries the cofactors 5,6[PP]2-InsP4 and InsP6 in its two openings; The results say 1,844 residues, the methods 1-1,843; source: Trichoplusia ni (Hi5) insect cells, baculovirus (Bac-to-Bac), purified (Ni-NTA, gel filtration on Superose 6)
T1 sequence (Q14997 whole entry): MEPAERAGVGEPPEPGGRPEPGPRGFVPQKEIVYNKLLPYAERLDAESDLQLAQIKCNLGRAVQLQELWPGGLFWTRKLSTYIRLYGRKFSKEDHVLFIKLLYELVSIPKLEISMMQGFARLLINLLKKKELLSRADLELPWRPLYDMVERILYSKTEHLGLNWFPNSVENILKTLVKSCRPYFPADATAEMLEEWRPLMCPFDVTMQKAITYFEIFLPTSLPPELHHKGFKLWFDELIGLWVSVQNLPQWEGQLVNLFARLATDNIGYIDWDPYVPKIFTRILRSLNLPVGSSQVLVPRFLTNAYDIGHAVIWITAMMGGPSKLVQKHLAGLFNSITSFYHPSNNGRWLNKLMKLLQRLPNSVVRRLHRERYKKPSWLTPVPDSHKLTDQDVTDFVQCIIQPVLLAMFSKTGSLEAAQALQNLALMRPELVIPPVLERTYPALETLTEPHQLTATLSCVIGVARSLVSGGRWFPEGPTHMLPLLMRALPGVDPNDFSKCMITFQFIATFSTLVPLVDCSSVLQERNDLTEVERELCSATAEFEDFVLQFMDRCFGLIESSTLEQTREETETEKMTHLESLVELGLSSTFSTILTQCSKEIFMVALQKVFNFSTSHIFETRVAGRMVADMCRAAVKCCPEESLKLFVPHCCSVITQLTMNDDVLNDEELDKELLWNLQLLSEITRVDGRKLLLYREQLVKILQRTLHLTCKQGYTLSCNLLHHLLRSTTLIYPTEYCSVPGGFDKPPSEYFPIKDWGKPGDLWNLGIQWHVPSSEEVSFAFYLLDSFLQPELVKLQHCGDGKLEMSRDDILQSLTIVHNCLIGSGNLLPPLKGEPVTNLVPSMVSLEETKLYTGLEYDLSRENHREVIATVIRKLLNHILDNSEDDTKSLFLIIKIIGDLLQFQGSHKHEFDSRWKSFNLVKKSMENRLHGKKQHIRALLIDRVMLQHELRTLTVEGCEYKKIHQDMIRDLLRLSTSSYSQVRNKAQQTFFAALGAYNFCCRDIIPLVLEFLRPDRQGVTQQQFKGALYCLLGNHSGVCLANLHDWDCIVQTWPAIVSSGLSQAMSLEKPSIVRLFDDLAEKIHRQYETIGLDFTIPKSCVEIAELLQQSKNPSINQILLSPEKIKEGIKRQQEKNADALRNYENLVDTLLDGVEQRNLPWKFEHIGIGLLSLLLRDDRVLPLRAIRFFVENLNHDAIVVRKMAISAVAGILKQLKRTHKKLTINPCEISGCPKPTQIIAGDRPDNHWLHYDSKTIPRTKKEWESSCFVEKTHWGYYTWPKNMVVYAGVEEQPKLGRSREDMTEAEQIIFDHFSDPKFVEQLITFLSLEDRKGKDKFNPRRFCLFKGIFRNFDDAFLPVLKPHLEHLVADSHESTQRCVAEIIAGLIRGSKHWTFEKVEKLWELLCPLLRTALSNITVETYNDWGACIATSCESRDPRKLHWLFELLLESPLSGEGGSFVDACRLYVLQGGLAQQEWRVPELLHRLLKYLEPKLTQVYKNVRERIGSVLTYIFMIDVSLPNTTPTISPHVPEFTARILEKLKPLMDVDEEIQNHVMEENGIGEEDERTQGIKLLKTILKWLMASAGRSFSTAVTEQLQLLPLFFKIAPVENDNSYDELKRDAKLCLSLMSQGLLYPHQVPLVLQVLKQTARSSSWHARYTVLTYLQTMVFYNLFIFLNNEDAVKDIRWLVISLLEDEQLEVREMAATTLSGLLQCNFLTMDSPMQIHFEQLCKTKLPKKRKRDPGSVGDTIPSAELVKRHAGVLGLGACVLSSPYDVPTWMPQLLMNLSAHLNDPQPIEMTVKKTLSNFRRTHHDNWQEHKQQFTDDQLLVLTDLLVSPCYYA

Chain of human 20S proteasome core particle (human) (P60900 whole entry, looked up): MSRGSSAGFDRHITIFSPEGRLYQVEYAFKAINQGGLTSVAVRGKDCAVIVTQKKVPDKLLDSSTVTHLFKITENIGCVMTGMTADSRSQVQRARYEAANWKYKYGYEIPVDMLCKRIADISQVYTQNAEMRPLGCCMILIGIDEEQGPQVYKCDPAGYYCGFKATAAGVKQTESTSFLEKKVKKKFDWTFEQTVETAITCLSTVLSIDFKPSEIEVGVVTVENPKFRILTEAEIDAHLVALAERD
Chain of human proteasome activator 200 (PA200) (from UniProt Q14997 1-1843) (natural protein) (Q14997 whole entry): as the sequence (Q14997 whole entry) above

Vmax of cleavage of Suc-LLVY-AMC (chymotryptic-like activity) by PA200-20S, 2.5 nM; 20S alone 3.14 μM/min [1]	binding result [2]	Molecule
11.4 µM/min		human proteasome activator 200 (PA200) (from UniProt Q14997 1-1843) (natural protein)
	binds	human 20S proteasome subunit α2 (natural protein, 20S proteasome subunit α2, human; named only as α2; Stood in the experiment as a subunit of the whole 20S core particle; source: bought: Boston Biochem, as part of the human 20S proteasome) MAERGYSFSLTTFSPSGKLVQIEYALAAVAGGAPSVGIKAANGVVLATEKKQKSILYDERSVHKVEPITKHIGLVYSGMGPDYRVLVHRARKLAQQYYLVYQEPIPTAQLVQRVASVMQEYTQSGGVRPFGVSLLICGWNEGRPYLFQSDPSGAYFAWKATAMGKNYVNGKTFLEKRYNEDLELEDAIHTAILTLKESFEGQMTEDNIEVGICNEAGFRRLTPTEVKDYLAAIA
	binds	human 20S proteasome subunit α4 (natural protein, 20S proteasome subunit α4, human; named only as α4; Stood in the experiment as a subunit of the whole 20S core particle; source: bought: Boston Biochem, as part of the human 20S proteasome) MSYDRAITVFSPDGHLFQVEYAQEAVKKGSTAVGVRGRDIVVLGVEKKSVAKLQDERTVRKICALDDNVCMAFAGLTADARIVINRARVECQSHRLTVEDPVTVEYITRYIASLKQRYTQSNGRRPFGISALIVGFDFDGTPRLYQTDPSGTYHAWKANAIGRGAKSVREFLEKNYTDEAIETDDLTIKLVIKALLEVVQSGGKNIELAVMRRDQSLKILNPEEIEKYVAEIEKEKEENEKKKQKKAS
	binds	human 20S proteasome subunit α7 (natural protein, 20S proteasome subunit α7, human; named only as α7; Stood in the experiment as a subunit of the whole 20S core particle; source: bought: Boston Biochem, as part of the human 20S proteasome) MSSIGTGYDLSASTFSPDGRVFQVEYAMKAVENSSTAIGIRCKDGVVFGVEKLVLSKLYEEGSNKRLFNVDRHVGMAVAGLLADARSLADIAREEASNFRSNFGYNIPLKHLADRVAMYVHAYTLYSAVRPFGCSFMLGSYSVNDGAQLYMIDPSGVSYGYWGCAIGKARQAAKTEIEKLQMKEMTCRDIVKEVAKIIYIVHDEVKDKAFELELSWVGELTNGRHEIVPKDIREEAEKYAKESLKEEDESDDDNM
	binds	human 20S proteasome subunit α3 (natural protein, 20S proteasome subunit α3, human; named only as α3; Stood in the experiment as a subunit of the whole 20S core particle; source: bought: Boston Biochem, as part of the human 20S proteasome) MSRRYDSRTTIFSPEGRLYQVEYAMEAIGHAGTCLGILANDGVLLAAERRNIHKLLDEVFFSEKIYKLNEDMACSVAGITSDANVLTNELRLIAQRYLLQYQEPIPCEQLVTALCDIKQAYTQFGGKRPFGVSLLYIGWDKHYGFQLYQSDPSGNYGGWKATCIGNNSAAAVSMLKQDYKEGEMTLKSALALAIKVLNKTMDVSKLSAEKVEIATLTRENGKTVIRVLKQKEVEQLIKKHEEEEAKAEREKKEKEQKEKDK
	binds	human 20S proteasome subunit α5 (natural protein, 20S proteasome subunit α5, human; named only as α5; Stood in the experiment as a subunit of the whole 20S core particle; source: bought: Boston Biochem, as part of the human 20S proteasome) MFLTRSEYDRGVNTFSPEGRLFQVEYAIEAIKLGSTAIGIQTSEGVCLAVEKRITSPLMEPSSIEKIVEIDAHIGCAMSGLIADAKTLIDKARVETQNHWFTYNETMTVESVTQAVSNLALQFGEEDADPGAMSRPFGVALLFGGVDEKGPQLFHMDPSGTFVQCDARAIGSASEGAQSSLQEVYHKSMTLKEAIKSSLIILKQVMEEKLNATNIELATVQPGQNFHMFTKEELEEVIKDI
